Measured values from patent US10941182 (Amgen, dated 2021).
Starred links: 1 amine or outer side, 2 acyl side, 3 side chain; linkers in the order of their positions; H or OH if unused. Non-standard residues stand in square brackets, D forms with d. *: point of attachment. AC4Abu = α-carboxy-4-aminobutyric acid, O=C(C(CCN[*:1])C(=O)[*:3])[*:2]; Oic = O=C(O)[C@@H]1C[C@@H]2CCCC[C@@H]2N1; Phe(4-Cl) = N[C@@H](Cc1ccc(Cl)cc1)C(=O)O; γGlu = O=C(O)[C@H](CCC(=O)[*:2])N[*:1]; 2Nal = N[C@@H](Cc1ccc2ccccc2c1)C(=O)O; NMeR = CN[C@@H](CCCNC(=N)N)C(=O)O; Tridecanoyl = CCCCCCCCCCCCC(=O)*; hArg = N=C(N)NCCCC[C@H](N)C(=O)O; Cha = N[C@@H](CC1CCCCC1)C(=O)O; αMeL = CC(C)C[C@](C)(N)C(=O)O; αMeP = C[C@@]1(C(=O)O)CCCN1; Nle = CCCC[C@H](N)C(=O)O; AEEA = NCCOCCOCC(=O)O; Aib = CC(C)(N)C(=O)O; BLeu = β-leucine

T1: rat APJ receptor (rat, UniProt Q9JHG3 1-377)
T1 sequence (looked up): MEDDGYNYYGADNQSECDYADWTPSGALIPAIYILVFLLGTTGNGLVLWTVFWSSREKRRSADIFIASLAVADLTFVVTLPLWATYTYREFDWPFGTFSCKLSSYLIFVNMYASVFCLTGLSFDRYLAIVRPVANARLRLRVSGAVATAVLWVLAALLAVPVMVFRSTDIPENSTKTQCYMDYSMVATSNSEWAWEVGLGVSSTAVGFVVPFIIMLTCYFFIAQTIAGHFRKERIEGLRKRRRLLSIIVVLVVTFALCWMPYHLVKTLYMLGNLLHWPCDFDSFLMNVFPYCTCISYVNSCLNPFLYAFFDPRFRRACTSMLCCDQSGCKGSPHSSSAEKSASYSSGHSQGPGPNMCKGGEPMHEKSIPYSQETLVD

T2: human APJ receptor (human, UniProt P35414 1-380)
T2 sequence (looked up): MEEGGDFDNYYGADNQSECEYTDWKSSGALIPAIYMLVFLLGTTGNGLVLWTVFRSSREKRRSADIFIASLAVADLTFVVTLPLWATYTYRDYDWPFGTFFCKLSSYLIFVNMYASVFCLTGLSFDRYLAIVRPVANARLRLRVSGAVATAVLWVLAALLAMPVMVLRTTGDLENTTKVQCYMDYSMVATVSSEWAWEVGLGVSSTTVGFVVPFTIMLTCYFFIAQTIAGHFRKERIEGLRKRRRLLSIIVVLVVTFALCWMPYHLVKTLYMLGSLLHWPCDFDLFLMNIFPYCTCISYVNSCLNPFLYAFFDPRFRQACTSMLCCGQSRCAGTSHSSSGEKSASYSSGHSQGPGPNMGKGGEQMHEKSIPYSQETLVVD


Tests used:
rat APJ receptor = target: T1, rat APJ receptor; assay: cell-based or functional assay
human APJ receptor = target: T2, human APJ receptor; assay: cell-based or functional assay

Row | Binder | EC50 Rat APJ Receptor (GTPγS assay) (rat APJ receptor) [nM] | EC50 Human APJ Receptor (GTPγS assay) (human APJ receptor) [nM]
1 | Tridecanoyl-[γGlu][AEEA][AEEA][dQ]RP[Nle][Cha]SHKG[Oic][Nle][Aib][Phe(4-Cl)]-OH (SMILES CCCCCCCCCCCCC(=O)N[C@@H](CCC(=O)NCCOCCOCC(=O)NCCOCCOCC(=O)N[C@H](CCC(N)=O)C(=O)N[C@@H](CCCNC(=N)N)C(=O)N1CCC[C@H]1C(=O)N[C@@H](CCCC)C(=O)N[C@@H](CC1CCCCC1)C(=O)N[C@@H](CO)C(=O)N[C@@H](Cc1c[nH]cn1)C(=O)N[C@@H](CCCCN)C(=O)NCC(=O)N1[C@H](C(=O)N[C@@H](CCCC)C(=O)NC(C)(C)C(=O)N[C@@H](Cc2ccc(Cl)cc2)C(=O)O)C[C@@H]2CCCC[C@@H]21)C(=O)O) [Apelin polypeptide SEQ ID NO: 528] | 21.8 | 5.63
2 | Tridecanoyl-[γGlu][AEEA][AEEA]QRP[hArg][αMeL]SHKG[Oic][Nle]P[Phe(4-Cl)]-OH (SMILES CCCCCCCCCCCCC(=O)N[C@@H](CCC(=O)NCCOCCOCC(=O)NCCOCCOCC(=O)N[C@@H](CCC(N)=O)C(=O)N[C@@H](CCCNC(=N)N)C(=O)N1CCC[C@H]1C(=O)N[C@@H](CCCCNC(=N)N)C(=O)N[C@@](C)(CC(C)C)C(=O)N[C@@H](CO)C(=O)N[C@@H](Cc1c[nH]cn1)C(=O)N[C@@H](CCCCN)C(=O)NCC(=O)N1[C@H](C(=O)N[C@@H](CCCC)C(=O)N2CCC[C@H]2C(=O)N[C@@H](Cc2ccc(Cl)cc2)C(=O)O)C[C@@H]2CCCC[C@@H]21)C(=O)O) [Apelin polypeptide SEQ ID NO: 360] | 0.0827 | 0.0519
3 | Tridecanoyl-[γGlu][AEEA][AEEA][dQ]RP[Nle][Cha]SAKG[Oic][Nle][Aib][Phe(4-Cl)]-OH (SMILES CCCCCCCCCCCCC(=O)N[C@@H](CCC(=O)NCCOCCOCC(=O)NCCOCCOCC(=O)N[C@H](CCC(N)=O)C(=O)N[C@@H](CCCNC(=N)N)C(=O)N1CCC[C@H]1C(=O)N[C@@H](CCCC)C(=O)N[C@@H](CC1CCCCC1)C(=O)N[C@@H](CO)C(=O)N[C@@H](C)C(=O)N[C@@H](CCCCN)C(=O)NCC(=O)N1[C@H](C(=O)N[C@@H](CCCC)C(=O)NC(C)(C)C(=O)N[C@@H](Cc2ccc(Cl)cc2)C(=O)O)C[C@@H]2CCCC[C@@H]21)C(=O)O) [Apelin polypeptide SEQ ID NO: 529] | 24 | 5.26
4 | Tridecanoyl-[γGlu][AEEA][AEEA]QRP[NMeR][αMeL]SHKG[Oic][Nle][αMeP][Phe(4-Cl)]-OH (SMILES CCCCCCCCCCCCC(=O)N[C@@H](CCC(=O)NCCOCCOCC(=O)NCCOCCOCC(=O)N[C@@H](CCC(N)=O)C(=O)N[C@@H](CCCNC(=N)N)C(=O)N1CCC[C@H]1C(=O)N(C)[C@@H](CCCNC(=N)N)C(=O)N[C@@](C)(CC(C)C)C(=O)N[C@@H](CO)C(=O)N[C@@H](Cc1c[nH]cn1)C(=O)N[C@@H](CCCCN)C(=O)NCC(=O)N1[C@H](C(=O)N[C@@H](CCCC)C(=O)N2CCC[C@@]2(C)C(=O)N[C@@H](Cc2ccc(Cl)cc2)C(=O)O)C[C@@H]2CCCC[C@@H]21)C(=O)O) [Apelin polypeptide SEQ ID NO: 376] | 0.414 | 0.237
5 | Tridecanoyl-[γGlu][AEEA][AEEA][dQ]RP[hArg][BLeu]SHKG[Oic][Nle]P[Phe(4-Cl)]-OH [Apelin polypeptide SEQ ID NO: 378] | 0.411 | 0.26
6 | Tridecanoyl-[γGlu][AEEA][AEEA]QRP[Nle]LSHKGP[Nle]P[Phe(4-Cl)]-OH (SMILES CCCCCCCCCCCCC(=O)N[C@@H](CCC(=O)NCCOCCOCC(=O)NCCOCCOCC(=O)N[C@@H](CCC(N)=O)C(=O)N[C@@H](CCCNC(=N)N)C(=O)N1CCC[C@H]1C(=O)N[C@@H](CCCC)C(=O)N[C@@H](CC(C)C)C(=O)N[C@@H](CO)C(=O)N[C@@H](Cc1c[nH]cn1)C(=O)N[C@@H](CCCCN)C(=O)NCC(=O)N1CCC[C@H]1C(=O)N[C@@H](CCCC)C(=O)N1CCC[C@H]1C(=O)N[C@@H](Cc1ccc(Cl)cc1)C(=O)O)C(=O)O) [Apelin polypeptide SEQ ID NO: 428] | 0.494 | 0.4
7 | Tridecanoyl-[γGlu][AEEA][AEEA][dQ]RP[NMeR][αMeL]SHKG[Oic][Nle]P[Phe(4-Cl)]-OH (SMILES CCCCCCCCCCCCC(=O)N[C@@H](CCC(=O)NCCOCCOCC(=O)NCCOCCOCC(=O)N[C@H](CCC(N)=O)C(=O)N[C@@H](CCCNC(=N)N)C(=O)N1CCC[C@H]1C(=O)N(C)[C@@H](CCCNC(=N)N)C(=O)N[C@@](C)(CC(C)C)C(=O)N[C@@H](CO)C(=O)N[C@@H](Cc1c[nH]cn1)C(=O)N[C@@H](CCCCN)C(=O)NCC(=O)N1[C@H](C(=O)N[C@@H](CCCC)C(=O)N2CCC[C@H]2C(=O)N[C@@H](Cc2ccc(Cl)cc2)C(=O)O)C[C@@H]2CCCC[C@@H]21)C(=O)O) [Apelin polypeptide SEQ ID NO: 386] | 0.261 | 0.0934
8 | Tridecanoyl-[γGlu][AEEA][AEEA]QRP[NMeR][αMeL]SHKG[Oic][Nle]P[Phe(4-Cl)]-OH (SMILES CCCCCCCCCCCCC(=O)N[C@@H](CCC(=O)NCCOCCOCC(=O)NCCOCCOCC(=O)N[C@@H](CCC(N)=O)C(=O)N[C@@H](CCCNC(=N)N)C(=O)N1CCC[C@H]1C(=O)N(C)[C@@H](CCCNC(=N)N)C(=O)N[C@@](C)(CC(C)C)C(=O)N[C@@H](CO)C(=O)N[C@@H](Cc1c[nH]cn1)C(=O)N[C@@H](CCCCN)C(=O)NCC(=O)N1[C@H](C(=O)N[C@@H](CCCC)C(=O)N2CCC[C@H]2C(=O)N[C@@H](Cc2ccc(Cl)cc2)C(=O)O)C[C@@H]2CCCC[C@@H]21)C(=O)O) [Apelin polypeptide SEQ ID NO: 385] | 0.17 | 0.0688
9 | Tridecanoyl-[γGlu][AEEA][AEEA]QRP[hArg][Cha]SHKG[Oic][Nle]P[Phe(4-Cl)]-OH (SMILES CCCCCCCCCCCCC(=O)N[C@@H](CCC(=O)NCCOCCOCC(=O)NCCOCCOCC(=O)N[C@@H](CCC(N)=O)C(=O)N[C@@H](CCCNC(=N)N)C(=O)N1CCC[C@H]1C(=O)N[C@@H](CCCCNC(=N)N)C(=O)N[C@@H](CC1CCCCC1)C(=O)N[C@@H](CO)C(=O)N[C@@H](Cc1c[nH]cn1)C(=O)N[C@@H](CCCCN)C(=O)NCC(=O)N1[C@H](C(=O)N[C@@H](CCCC)C(=O)N2CCC[C@H]2C(=O)N[C@@H](Cc2ccc(Cl)cc2)C(=O)O)C[C@@H]2CCCC[C@@H]21)C(=O)O) [Apelin polypeptide SEQ ID NO: 308] | 0.18 | 0.0867
10 | Tridecanoyl-[γGlu][AEEA][AEEA]QRP[hArg]LSHKG[Oic][Nle]P[Phe(4-Cl)]-OH (SMILES CCCCCCCCCCCCC(=O)N[C@@H](CCC(=O)NCCOCCOCC(=O)NCCOCCOCC(=O)N[C@@H](CCC(N)=O)C(=O)N[C@@H](CCCNC(=N)N)C(=O)N1CCC[C@H]1C(=O)N[C@@H](CCCCNC(=N)N)C(=O)N[C@@H](CC(C)C)C(=O)N[C@@H](CO)C(=O)N[C@@H](Cc1c[nH]cn1)C(=O)N[C@@H](CCCCN)C(=O)NCC(=O)N1[C@H](C(=O)N[C@@H](CCCC)C(=O)N2CCC[C@H]2C(=O)N[C@@H](Cc2ccc(Cl)cc2)C(=O)O)C[C@@H]2CCCC[C@@H]21)C(=O)O) [Apelin polypeptide SEQ ID NO: 356] | 0.289 | 0.321
11 | Tridecanoyl-[AC4Abu][AEEA][AEEA]QRP[hArg][αMeL]SHKGP[Nle]P[2Nal]-OH (SMILES CCCCCCCCCCCCC(=O)NCCC(C(=O)O)C(=O)NCCOCCOCC(=O)NCCOCCOCC(=O)N[C@@H](CCC(N)=O)C(=O)N[C@@H](CCCNC(=N)N)C(=O)N1CCC[C@H]1C(=O)N[C@@H](CCCCNC(=N)N)C(=O)N[C@@](C)(CC(C)C)C(=O)N[C@@H](CO)C(=O)N[C@@H](Cc1c[nH]cn1)C(=O)N[C@@H](CCCCN)C(=O)NCC(=O)N1CCC[C@H]1C(=O)N[C@@H](CCCC)C(=O)N1CCC[C@H]1C(=O)N[C@@H](Cc1ccc2ccccc2c1)C(=O)O) [Apelin polypeptide SEQ ID NO: 404] | 0.361 | 0.298
12 | Tridecanoyl-[γGlu][AEEA][AEEA]QRP[NMeR][αMeL]SHKG[Oic][Nle][Phe(4-Cl)]-OH (SMILES CCCCCCCCCCCCC(=O)N[C@@H](CCC(=O)NCCOCCOCC(=O)NCCOCCOCC(=O)N[C@@H](CCC(N)=O)C(=O)N[C@@H](CCCNC(=N)N)C(=O)N1CCC[C@H]1C(=O)N(C)[C@@H](CCCNC(=N)N)C(=O)N[C@@](C)(CC(C)C)C(=O)N[C@@H](CO)C(=O)N[C@@H](Cc1c[nH]cn1)C(=O)N[C@@H](CCCCN)C(=O)NCC(=O)N1[C@H](C(=O)N[C@@H](CCCC)C(=O)N[C@@H](Cc2ccc(Cl)cc2)C(=O)O)C[C@@H]2CCCC[C@@H]21)C(=O)O) [Apelin polypeptide SEQ ID NO: 389] | 0.365 | 0.196
